Reference: article PMC6193735, “Defining LytTR Regulatory Systems”

Target: T1, HdrR (Streptococcus mutans UA140, UniProt Q8DSE1 1-133)
T1 sequence: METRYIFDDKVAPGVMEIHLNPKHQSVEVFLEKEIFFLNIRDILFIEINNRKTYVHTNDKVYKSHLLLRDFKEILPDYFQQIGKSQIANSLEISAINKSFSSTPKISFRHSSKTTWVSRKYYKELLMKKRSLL
Experiment: EMSA; 1 ng probe, 10-30 ug HdrR as printed, 20 ul; unlabeled wild-type competitor 50 and 200 ng; EMSA: 20 ul, 25 C, 20 min; binding buffer not printed (as ref 62); oligos annealed in 50 mM Tris-HCl pH 8.0, 10 mM MgCl2, 50 mM NaCl, 1 mM EDTA
Conditions: protein: recombinant; tags: His6 (HdrR-His6, pET29b); chain copies: 2; label: 5' digoxigenin-11-ddUTP on forward strand (probe); blunt

B1: hdrRMP (wild-type hdrRM operon direct repeat probe) (dsDNA)
DNA 1: TAATGGTTACCTCTTAGACATTAAAAATGACCACTTAATAGAAAAG
DNA 2: CTTTTCTATTAAGTGGTCATTTTTAATGTCTAAGAGGTAACCATTA
Question: Does B1 bind?
Answer: Result: binds
